These results are taken from PMC6016253, “The ICP27 Homology Domain of the Human Cytomegalovirus Protein UL69 Adopts a Dimer-of-Dimers Structure” (mBio, 2018).

This data set deals with the molecule itself. Description: SEC-MALS; 0.5 ml at 1 mg/ml on Superdex 200 10/300 GL, 0.75 ml/min; 20 mM HEPES, 150 mM NaCl, 50 mM L-Arg, 50 mM L-Glu, 1 mM TCEP, pH 7.9. On the technique in general: Size exclusion chromatography separates by hydrodynamic size, large species first.

B1: UL69short (HCMV UL69 residues 248 to 536) (domain or fragment)
chain: PSSTSPVYDLQRYTAESLRLAPYPADLKVPTAFPQDHQPRGRILLSHDELMHTDYLLHIRQQFDWLEEPLLRKLVVEKIFAVYNAPNLHTLLAIIDETLSYMKYHHLHGLPVNPHDPYLETVGGMRQLLFNKLNNLDLGCILDHQDGWGDHCSTLKRLVKKPGQMSAWLRDDVCDLQKRPPETFSQPMHRAMAYVCSFSRVAVSLRRRALQVTGTPQFFDQFDTNNAMGTYRCGAVSDLILGALQCHECQNEMCELRIQRALAPYRFMIAYCPFDEQSLLDLTVFAGTT
notes: UL69 of human cytomegalovirus (HCMV), 744 amino acids; residues 248 to 536: ICP27 homology domain only; gene synthesis, codon optimized; HRV3C protease-cleavable N-terminal thioredoxin tag plus Strep-tag; not shown: thioredoxin, N-terminal, cleaved
For B1, the stoichiometry N – broadly, the number of molecules, sites or subunits per partner or assembly – was 2.

B2: UL69long (HCMV UL69 residues 200 to 540) (domain or fragment)
chain: GPQQQQMLALIDDELDAMDEDELQQLSRLIEKKKRARLQRGAASSGTSPSSTSPVYDLQRYTAESLRLAPYPADLKVPTAFPQDHQPRGRILLSHDELMHTDYLLHIRQQFDWLEEPLLRKLVVEKIFAVYNAPNLHTLLAIIDETLSYMKYHHLHGLPVNPHDPYLETVGGMRQLLFNKLNNLDLGCILDHQDGWGDHCSTLKRLVKKPGQMSAWLRDDVCDLQKRPPETFSQPMHRAMAYVCSFSRVAVSLRRRALQVTGTPQFFDQFDTNNAMGTYRCGAVSDLILGALQCHECQNEMCELRIQRALAPYRFMIAYCPFDEQSLLDLTVFAGTTTTTA
notes: UL69 of human cytomegalovirus (HCMV), 744 amino acids; residues 200 to 540: ICP27 homology domain plus an N-terminal region conserved only in betaherpesviruses; gene synthesis, codon optimized; HRV3C protease-cleavable N-terminal thioredoxin tag plus Strep-tag; also called UL69 tetramer; not shown: thioredoxin, N-terminal, cleaved
In the case of B2, the “stoichiometry N” value is 4.
